Our source for the Kd values is paper PMC6642009.

The target of this test is FITC-SgbA(leader) (Streptomyces globisporus sp. NRRL B-2293). The test can be described thus: fluorescence polarisation.
As a reminder, the Kd is a measure of binding affinity in units of concentration. Read a low Kd as tighter binding. In turn, “His6-MBP-SgbL(208–318) (domain or fragment)” gave a Kd of 31000 nM.
As for “His6-SgbL(lyase-kinase 1–548) (domain or fragment)”, the figure is 251 nM; as for “His6-SgbL(lyase-kinase 1–548) D351A (domain or fragment)”, 576 nM; as for “His6-SgbL(lyase-kinase 1–548) D369A (domain or fragment)”, 353 nM.
As for “His6-SgbL(lyase-kinase 1–548) E270A (domain or fragment)”, the figure is 1720 nM; as for “His6-SgbL(lyase-kinase 1–548) K248A (domain or fragment)”, 7110 nM; as for “His6-SgbL(lyase-kinase 1–548) N356A (domain or fragment)”, 321 nM.
